The nanobody polyreactivity screen of Harvey et al. (2022)

Experiment: yeast display, Sf9 membrane polyspecificity reagent, FACS + sequencing; frameworks hold sequencing errors
How it was run: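 After 36–48 hours of galactose induction, yeast (Saccharomyces cerevisiae BJ5465) displaying a synthetic nanobody library were stained at 4 °C for 1 hour with 10% biotinylated, detergent-solubilized Sf9 membrane reagent. Streptavidin microbeads enriched the stained cells before FACS sorting into low and high (top ~1%) gates on anti-HA and streptavidin fluorescence. Each clone's polyreactivity label reflects its gate of origin.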

Sequence | polyreactivity (PSR sort gate)
QVQLVESGGGLVQAGGSLRLSCAASGRIFNRNAKGWYRQAPGKERELVAAISSDTSTNYADSVKGRFTISRDNAKNTVYLQMNCLKPEDTAVYYCATKYGTSNWYNTYYYWGQGTQVTVSS | low polyreactivity
QVQLVESGGGLVQAGGSLRLSCAASGRIFHYYAMGWYIKAPGKERELVAAITSSGGSTYYADSVKGRFTISRDNAKNTVYLKMNSLKPEDTAVYYCAARGRRVSAYYYWGQGTQVTVSS | high polyreactivity
QVQLVESGGGLVQAGGSLRLSCAASGFIFSSYAMGWYRQAPGKEREFVAVISTGGGSTYYADSVKGRFTLSRDNAKNTVYLQMISLKPEDTAVYYCAAKLYDSGGRYWYDYWGQGTQVTVSS | high polyreactivity
QVQLVESGGGLVQAGVSLRLSCAASGRTFRSNAMGWYRQSPGKERELVAAITASGGNTYYADSVKGRFTISRDNAKNTVYLQMNSLKPEDTAVYYCAAVSRYNYGTNPYYYWGQGTQVTVSS | high polyreactivity
QVQLVESGGGLVQAGGSLRLSCAASGRTFYYAMGWYRQAPGKERELVATITSGGSTNYADSVKGRFTISRDNAKNTVYVQMNSLKPEDTAVYYCNRDIPPGNYYKALYYYWGQGTQVTVSS | low polyreactivity
QVQLVETGGGLVQAGGSLRLSCAASGSIFERYAMGWYRQAPGKEREFVATITSGGGRTYYADSVKGRFTISRDNAKNTVYLQMNSLKPEDTAVYYCAAASYRRQPFNYWGQGTQVTVSS | high polyreactivity
QVQLVESGVCLVQAGGSLRLSCASSGRIFKIYMGWYRQAPGKERELVAAISSGGRTYYADSVKGRFTISRDNAKNTVYLQMNSLKPEDTAVYYCAAEGTYYFRYPGPEDYDYWGLGTQVTVSS | high polyreactivity
QVQLVESGGGLVQAGGSLRLSCAASGFIFPYYGMGWYRQAPGKERELVATISRSGGRTYYADSVKGRFTISRDNAKNTVYLQMNSLKPEDTAVYYCARTTPYFYVDWGGYDYWGQGTQVTVSS | high polyreactivity
QVQLVESCGGLVQAGGSLRLSCAASGLIFIYNAMGWYRQAPGKERELVAAISRSGGRTYYADSVKGLFTISRDNAKNTVYVQMNSLKPEDTEVYYCATDASTYAYYGGDYWGQGTQVTVSS | low polyreactivity
QVQLVESGGGLVQAGGSLRLSCAASGIIFYIYTMGWYRQAPGKERELVAAINRSGSRTYYADSVKGRFTISRDNAKNTVYLQMNSLKPEDTAVYYCAAGTGSRDDYWGQGTQVTVSS | high polyreactivity
QVPLVESGGGLVQAGGSLRLSCAASGIIFGKYTMGWYRQAPGKERELVAAISKRGGSTYYADSVKGRFTISRDNAKNTVYLQMYSLKRVDTAVYYCAAERISSYDYWGQGTQVTVSS | high polyreactivity
QVQLVESGGGLVQAGGSLRLSCAASGSIFNLYTMGWYRQAPGKERELVAVITGGGSTYYADSVKGRFTISRDNAKNTVYLQMNSLKPDDTAVYYCAAKGPYYKSSRTGDYWGQGTQVTVSS | low polyreactivity
QVQLVESGGGLVQAGGSLRLSCAASGRTFPYNAMGWYRQAPGKERELVAVISSSGGSTYYADSVKGRFTISRDNAKNTVYLQMNSLKPEDTAVYYCNTRPYYYRRPGYRYSGYDYWGQGTQVTVSS | high polyreactivity
QVQLVESGGGLVQAGGSLRLSCAASGIIFTYSAMGWYRQAPGKERELVAAISRRGGTTYYADSVKGRFTISRDNAKNTVYLQMNSLKPEDTAVYYCAKKWGWFPVYYWGQGTQVTVSS | high polyreactivity
QVQLVESGGGLVQAGGSLRLSCAASGSTFAINAMGWYRQAPGKERELVAAISSSGSTNYADSVKGRFTISRDNAKNTVYLQMNSLKPEDTAVYYCAADQYWDGYDFLYDYWGQGTQVTVSS | low polyreactivity
QVQLVESGGGLVQAGGSLRLSCAASGFIFDRYAMGWYRQAPGKERELVAAISSGGSTYYADSVKGRFTISRDNAKNTVYLQMNSLKPEDTAVYYCAAESWLKFIYEYDYWGQGTQVTVSS | low polyreactivity
QVPQQESGGGLVQAGGSLRLSCAASGTIFQLTVMGRYRQAPGKERELVSSIDYGGNTNYADIVKGRFSISRVNAKNTVYLQMNRLKPEDTSVYYFAASSDSWTTHPYWGQATQVTVSS | low polyreactivity
QVQLVESGGGLVQAGGSLRLSCAASGRTMDFNVMGWYRQAPGKERELVAAITWSGGSTYYSDSVKGRFTISRDNAKNTVYLQMNSLKPVDTAVYYCAKDLWYWARRYDYWGQGTQVTVSS | high polyreactivity
QVQLVESGGGLVQAGGSLRLSCAASGSTLYWYAMGWYRQAPGKERELVAGISIGGRTNYADSVKGRFTISRDNAKNTVYLQMNSLKPEDTAVYYCNAENTYLGSRYRPYNYWGQGTQVTVSS | low polyreactivity
QVQLVESGGGLVQAGGSLRLSCAASGRIFYPNALGWYRQAPGTERELVAAITWRGGRTYYADSVKGRFTISRDNAKNTVYLQMNSLKPEDTAVYYCNAVAPGKYNHWGQGTQVTVSS | high polyreactivity
QVQLVESGGGLDQAGGSLRLTCAASRFNFNGYAMGSYSQAPRKERELVAGITSGGRTNYADSVKGRFTISRDNAKNTVYLQMNSLKPEDTAVYYCNRYKVSGYDYWGQGTQVTVSS | high polyreactivity
QVQLVESGGGLVQAGGSLRLCCAPSGSIFYGYDMGWYRQAPGKERELVATISWSSGSSTYYADSVKGRFTISRDNAKNTVYLQMNSLKPEDTAVYYCAVDFAIGYRYLGRVDYWGQGTQVTVSS | low polyreactivity

Sequence | polyreactivity (PSR sort gate)
QVQLVESGGGLVQAGGRLRLSCAASGSTFGSNVMGWYRQAPGKERELVASISSGGRTKYADSVKGRFTISRDNAKNTVYLQMNSLKPEDTAVYYCNTRLRKKNSRDYDYWGQGTQVTVSS | low polyreactivity
QVQLVESGGGLVQAGGSLRLSCAASGRIFGAYAMGWYRQAPGKERELVAAITGGGSTYYADSVKGRFTISRDNAKTTVYLQMKSLKPEDTAVYYCAADYYWTYSYYYERFDYWGQGTQVTVSS | low polyreactivity
QVQLVDSGGGLVQAGGRLRLSCAASGRTFVRYAMGWYRQAPGKERELVATIRWRGGSTYYADSVKGRFTISRDNAKNTVYLQMNSLKPDDTAVYYCAARRYSSGLTDDYWGQGTQVTVSS | high polyreactivity
QVHLVESGGGLVQAGGSLRLSCAASRGIFHYYAMGWYRQAPGNERELVAAISWNTGSTYYADSVKGRFTISRDNAKNTVYLQMNSLKPEDTAVYYCAASYRSPWMRYDYWGQGTQVTVSS | high polyreactivity
QVQLVESGGGIVQAGCSLRLSCAASGRTFSWNSMGWYRQAPGKERELVAAITYSGGNTYYADSVKGRFSISRDNAKNTVYLQMNSLKQEDTAVYYCAKFGVTGQGSWSQRMGYWGQGTQVTVSS | high polyreactivity
QDQHVETGGGLVQAGGSLRLSCAASGRTFKFYAMGWYRQAHGKERELVAAITSGGKTNYADSVKGRFTISRDNAKNTVYLQLNSLKPEDTAVYYCKADAGRLSNRYRLWTYGYWGQGTQVTVSS | low polyreactivity
QVQLVESGGGLVQAGGSLRLSCGASGRTFRPYAMGWYRQEPGKERELVAAITGGTRTYYADSVKGRFTISRDNAKNTVYLQMNSLKAEDTAVYYCAVGWAGRYDYWGQGTQVTVSS | low polyreactivity
QVQLVESGGGLVQAGGSLRLSCAASGFTFVIHDMGWYRQAPGKERELVADITSGGDTYYADSVKGRFTISRDNAKNTVYLQMNSQKPEDTAVYYCAADIYPDWIYLLYGYWGQGTQGTVSS | low polyreactivity
QVQLLESGGGLFQTGGSLRLSCAASGRTFWNYAKGWYRQAPGKERELVAVIRFSDGSTYYADSVKGRFTISRDNAKNTVYLQMNSLKPQDTAVYYSAAKGPRRWGSGFDYWGQGTQVTVSS | low polyreactivity
QVQLVESGGGLVQAGGSLRLSCAASGSIFYSYTMGWYRQAPGKEMELVAAINSGGSTYYADSVKGRFTISRDNAKNTVYLQMNSLKREDTAVYYCAARRTTSSGGYYYWGQGTQVTVSS | high polyreactivity
QVQLVESGGGLVQGGGSLRLSCAASGRNWSRYAMGWYRQAPGKERELVADITYSGGNTYYADSVKGRFTISRDNAKNTVYLQMNSLKPEDTAVYYCSTGWSWWTFDYWGQGTQVTVSS | high polyreactivity
QVQLVESGGGIVQAGGSLRLSCAASGLTFQVNAMGWYRQAPGKERELVAGITFSGGSTYYADSVKGRFTISRDNAKNTVYLQMNSLKPEDTAVYYCAADARFYAYYYWGQGTQVTVSS | low polyreactivity
QVQLVESGGGLVQAGGSLRLSCAASGSTFAPNAMGWYRQAPGKERELVAAISSGSSTYYADSVKGRFTISRDNAKNTVYLQMNSLKPEDTAVYYCARRVSWGYYYWGQGTQVTVSS | high polyreactivity
QVQLVESGGGLVQAGGSLRLSCAASGGTFQDYGMGWYRQAPGTERELVAAITWSGGSTYYADSVKGRFTISRDNAKNTVYLQMNSLKPEDTAVYYCAAVYADVYLYLTAYDYWGQGTQVTVSS | low polyreactivity
QVQLVESGGGLVQAGGSLRLSCAASGSIFKGYSMGWYRQAPGKERELVAAITIDGSTYYADSVKGRFTISRDNAKNTVYLQMNSLKPEDTAVYYCAAVYLWYGSWPLHFAAYDYWGQGTQVTVSS | low polyreactivity
QVQLVESGGGLVQAGGSLRLSCAASGRTFGRNAMGWYRQSPGKERELVAAISRSGASTYYADSVMGRFTLSRDNAKNTVYLQMNSLKPEDTAVYDCAARYSYYHGSAGFDYWGQGTQVTVSS | high polyreactivity
QVQIVDSGGGLVQAGGRLRLSCAPSGITFVYYAMGWYRQAPGKEREFVASITSNGVSTYYADSVKGRYTISRDNAMNTVYLQMNSLKPEDTAVYYCAADGTYRNYWYDYWGQGTQVTVSS | low polyreactivity
QVQLVESGGGLVQAGGSLRLSCAASGLILGVYTMGWYRQAPGKEREFVASINFGGGSTYYADSVKGRFTISRDNAKNTVYLQMNSLKPEDTAVYYCNARSLGGGTRLYSYDYWGQGTQVTVSS | low polyreactivity
QVQLVESGGGLVQAGGSLRLSCAASGLNFRRNAMRWYRQAPGKERELVAVIDRGGRTNYADSVKGRFTISRDNAKTTVYLQMNSLKPEDTAVYYCAKRYASTSGYWGQGTQVTVSS | high polyreactivity
QVQLVESGGGLVQAGGSLRLSCAASGRTFRYYDMGWYRQAPGKERELVAAITSRGGSTYYADSVKGRFTISRDNAKNTVYLQMNSLIPEDTAVYDCNAYPVQIFYLGNRQYNYWGHGTQVTVSS | high polyreactivity
QVQLVESGGGIVQAGGSLRLSCAASGRIFSKNTMGRYRKAPGKERELVAAIRSRAGSTYYADSVKGRFTISRDNAKNTVYLQMNSLIPEDTAVYYCAVPWFRSVDFDYWGQGTQVTVSS | low polyreactivity
